Results reported in US9758785B2, “miR-520 microRNAs sensitize cancers to platinum-based therapy” (BAYLOR COLLEGE OF MEDICINE, priority 2012, dated 2017).
“Also recorded” adds a separate entry of the source.

Tests used:
[1] = system: OVCAR8 cells; experiment: Proliferation assay (MTS, Cell Titer 96 Aqueous One); assay type: cell-based, human; conditions: for Proliferation: no cisplatin
Method: (§1) Established ovarian cancer cell lines were obtained from the ATCC (OVCAR8, OVCAR5) and the University of Texas M.D. Anderson Cancer Center (HEYA8, SKOV3ip1). All cell lines were maintained at 37° C. in RPMI 1640 media (Invitrogen, Carlsbad, Calif.) supplemented with 10% fetal bovine serums (Hyclone, Logan, Utah) and 1% penicillin/streptomycin (Gibco, Carlsbad, Calif.). MicroRNA mimics and mimic controls (Dharmacon, Lafayette, Colo.) were transiently transfected into actively growing cultures using Lipofectamine 2000 (Invitrogen, Carlsbad, Calif.). After a 24-hour incubation, transfected cultures were washed, passaged and seeded into 96 well plates. Proliferation and apoptosis were measured at 72, 96 and 120 hours after transfection using standard assays (Cell Titer 96 Aqueous One; Caspase Glo 3/7; Promega, Madison, Wis.). pLemiR expression vectors (Open Biosystems/Thermo, Huntsville, Ala.) were prepared according to manufacturer's instructions and transfected into cells using Fugene 6 (Roche, Indianapolis, Ind.). Following transfection, stable clones were selected using puromycin (Invitrogen) at doses optimized for each line. Rates of proliferation and apoptosis were examined in stable transfectants 24, 48, 72 and 96 hours after selected cells had been passaged and dispensed into 96 well plates. Viability was assessed across a clinically relevant range of cisplatin concentrations using an MTS assay (Promega). Cisplatin was obtained from Teva Pharmaceuticals (Irvine, Calif.).

[2] = system: SKOV3ip1 cells; experiment: as above; assay type: cell-based, human; conditions: no cisplatin
Method: as §1

[3] = system: HEY cells; experiment: Apoptosis assay (Caspase Glo 3/7); assay type: cell-based, human; conditions: mimic transfection
Method: as §1

[4] = system: OVCAR5; experiment: Apoptosis assay (Caspase Glo 3/7); assay type: cell-based, human; conditions: OVCAR5, mimic transfection
Method: as §1

[5] = system: OVCAR8 cells; experiment: Apoptosis assay (Caspase Glo 3/7); assay type: cell-based, human
Method: as §1

[6] = system: HEYA8 cells; experiment: Apoptosis assay (Caspase Glo 3/7); assay type: cell-based, human; conditions: HEYA8, acute mimic transfection
Method: as §1

[7] = system: SKOV3ip1 cells; experiment: Apoptosis assay (Caspase Glo 3/7); assay type: cell-based, human
Method: as §1

[8] = system: established ovarian cancer cell lines; experiment: Proliferation or apoptosis in established ovarian cancer cell lines after mimic transfection; assay type: cell-based, human; conditions: mimics vs control cultures; cell lines SKOV4, HEY, OVCAR8, OVCAR5
Method: as §1, with “Rates of proliferation and apoptosis were examined in stable transfectants 24, 48, 72 and 96 hours after selected cells had been passaged and dispensed into 96 well plates.” left out, “Cisplatin was obtained from Teva Pharmaceuticals (Irvine, Calif.).” left out

[9] = system: ovarian cancer cell lines; experiment: Cisplatin IC50 in multiple ovarian cancer cell lines; assay type: cell-based, human; conditions: OVCAR8 and SKOV3ip1 cells, p<0.001
Method: as §1, with “Rates of proliferation and apoptosis were examined in stable transfectants 24, 48, 72 and 96 hours after selected cells had been passaged and dispensed into 96 well plates.” left out, “Cisplatin was obtained from Teva Pharmaceuticals (Irvine, Calif.).” left out

[10] = system: OVCAR8 xenografts; experiment: Subcutaneous ovarian cancer xenograft; assay type: in vivo, mice; conditions: subcutaneous inoculation vs non-targeting control or empty vector

B1: hsa-mir-520h MI0003175 (nucleic acid, listed as Homo sapiens)
chain: UCCCAUGCUGUGACCCUCUAGAGGAAGCACUUUCUGUUUGUUGUCUGAGAAAAAACAAAGUGCUUCCCUUUAGAGUUACUGUUUGGGA
modifications: expressed or natural sequence
notes: synthetic mimic or stably expressed from pLemiR vector; written miR-520g/h interchangeably
[1]; OVCAR8, transient/acute mimic transfection vs non-silencing control
  Proliferation: significantly reduced
[1]; OVCAR8, transient/acute mimic transfection vs non-silencing control, listed as Mir-520g/h
  Proliferation: significantly increased
[1]; OVCAR8 clones stably expressing the microRNA
  Proliferation: enhanced the proliferation
[1]; mimic, transient, 96 hours following transfection, vs non-silencing control
  Increase in proliferation: 19%
[2]; SKOV3ip1, acute mimic transfection
  Proliferation: significantly reduced
[2]; SKOV3ip1 clones stably expressing the microRNA
  Proliferation: enhanced the proliferation
[3]
  Apoptosis: no impact
[4]
  Apoptosis: no impact
[5]; OVCAR8 clones stably expressing the microRNA, no cisplatin
  Caspase 3/7 expression: inhibited
[5]; OVCAR8 stable clones, cisplatin up to 10 μg/mL, listed as miR-520g/h
  Apoptosis in presence of cisplatin: significantly decreased; also recorded: significantly lower rates of apoptosis
[6]
  Apoptosis: increase rates of apoptosis
[7]; SKOV3ip1, acute mimic transfection, no cisplatin
  Apoptosis (caspase 3/7): decreasing apoptosis
[7]; SKOV3ip1 clones stably expressing the microRNA, no cisplatin
  Caspase 3/7 expression: inhibited
[7]; SKOV3ip1 stable clones, cisplatin treatment
  Apoptosis in presence of cisplatin: significantly increased
[8]
  Impact on proliferation or apoptosis: significantly impacted
[9]
  Reduction of IC50 for cisplatin: ≤ 4 fold
[10]
  Implant size total tumor burden: significantly smaller
